Measured values published in the supplement of paper PMC7877785.
± gives the uncertainty stated by the source.

Experiment: self-splicing fitness, log relative to wild type (ln ratio); higher = more splicing; Tetrahymena group I intron in knt gene, E. coli kanamycin selection, DiMSum; sequences stand for … in CUCUCU…GGAGGGAAAAGUUAUCAGGCAUGCACCUGGUAGCUAGUCUUUAAACCAAUAGAUUGCAUCGGUUUAAAAGGCAAGACCGUCAAAUUGCGGGAAAGGGGUCAACAGCCGUUCAGUACCAAGUCUCAGGGGAAACUUUGAGAUGGCCUUGCAAAGGGUAUGGUAAUAAGCUGACGGACAUGGUCCUAACCACGCAGCCAAGUCCUAAGUCAACAGAUCUUCUGUUGAUAUGGAUGCAGUUCACAGACUAAAUGUCGGUCGGGGAAGAUGUAUUCUUCUCAUAAGAUAUAGUCGGACCUCUCCUUAAUGGGAGCUAGCGGAUGAAGUGAUGCAACACUGGAGCCGCUGGGAACUAAUUUGUAUGCGAAAGUAUAUUGAUUAGUUUUGGAGUACUCGUGGUCG
Procedure, shortened: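 Colonies from six replicate transformations of E. coli BL21(DE3) were pooled and amplicon-sequenced on an Illumina HiSeq 2500. The library placed an intron with all eight P1ex-region nucleotides randomised inside the knt kanamycin-resistance gene on pET-22b(+), and cells grew overnight at 37°C or 30°C on LB agar with or without 25 μg/mL kanamycin (plus 100 μg/mL carbenicillin, 50 μM IPTG, 0.2% rhamnose). Fitness is the DiMSum error-weighted combination of wild-type-normalised replicate fold changes, kanamycin versus none.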

Row | Sequence | self-splicing fitness (ln) (30 °C) | self-splicing fitness (ln) (37 °C)
1 | UUUAAGCAAUAUUACGACGC | -3.48 ± 0.2 | -0.476 ± 0.16
2 | CGUGAGCAAUAUUACGCUUC | -3.91 ± 0.41 | -3.07 ± 0.43
3 | CAACAGCAAUAUUACGGGAC | -4.18 ± 0.17 | -2.99 ± 0.16
4 | CUGGAGCAAUAUUACGGACU | -3.12 ± 0.25 | -2.07 ± 0.46
5 | AGACAGCAAUAUUACGCUAC | -2.43 ± 0.2 | -2.61 ± 0.33
6 | CCAUAGCAAUAUUACGCAUU | -3.65 ± 0.26 | -2.84 ± 0.36
7 | CCGUAGCAAUAUUACGGUCU | -3.01 ± 0.21 | -2.2 ± 0.18
8 | GAUGAGCAAUAUUACGUCCC | -2.06 ± 0.43 | -1.04 ± 0.44
9 | AGAUAGCAAUAUUACGCCUA | -1.21 ± 0.099 | -1.29 ± 0.13
10 | CGGGAGCAAUAUUACGAUUG | -2.22 ± 0.46 | -1.72 ± 0.34
11 | ACAAAGCAAUAUUACGUAAG | -1.19 ± 0.056 | -0.79 ± 0.069
12 | UAUGAGCAAUAUUACGUACC | -2.28 ± 0.46 | -1.86 ± 0.43
13 | GCAAAGCAAUAUUACGUUGC | -3.51 ± 0.21 | -1.88 ± 0.21
14 | GCUUAGCAAUAUUACGCUGU | -2.25 ± 0.18 | -1.25 ± 0.18
15 | ACAGAGCAAUAUUACGCAAA | -2.6 ± 0.34 | -1.42 ± 0.28
16 | UAAAAGCAAUAUUACGUGGU | -3.53 ± 0.13 | -2.28 ± 0.14
17 | CAGAAGCAAUAUUACGUAUA | -3.84 ± 0.21 | -1.84 ± 0.14
18 | UCAGAGCAAUAUUACGACGG | -0.865 ± 0.14 | 0.304 ± 0.18
19 | GACUAGCAAUAUUACGAACA | -1.02 ± 0.16 | -0.254 ± 0.17
20 | UAUUAGCAAUAUUACGACGU | -1.02 ± 0.2 | -0.561 ± 0.17
21 | GCAUAGCAAUAUUACGGGUC | -3.17 ± 0.14 | -2.71 ± 0.17
22 | ACGCAGCAAUAUUACGCUAU | -1.25 ± 0.077 | -0.724 ± 0.11
23 | CGCGAGCAAUAUUACGUCCG | -2.81 ± 0.37 | 1.32 ± 0.29
24 | AUUUAGCAAUAUUACGGGCU | -2.71 ± 0.19 | -0.78 ± 0.16
25 | CGCUAGCAAUAUUACGGCAC | -1.9 ± 0.18 | 0.16 ± 0.19
26 | CGCGAGCAAUAUUACGUAAG | -1.78 ± 0.096 | -1.73 ± 0.12

Row | Sequence | self-splicing fitness (ln) (30 °C) | self-splicing fitness (ln) (37 °C)
27 | CGCCAGCAAUAUUACGGUGC | -3.5 ± 0.17 | -3.07 ± 0.3
28 | AGGAAGCAAUAUUACGACGU | 0.0515 ± 0.072 | 0.213 ± 0.076
29 | AGUGAGCAAUAUUACGUCCC | 0.506 ± 0.48 | 0.283 ± 0.36
30 | CUCUAGCAAUAUUACGCGCG | -3.15 ± 0.27 | -2.86 ± 0.28
31 | CCAGAGCAAUAUUACGGGAA |  | 0.0973 ± 0.28
32 | AAGUAGCAAUAUUACGACAC | -0.538 ± 0.19 | -0.726 ± 0.19
33 | GCCAAGCAAUAUUACGAUAG | -3.28 ± 0.36 | -2.43 ± 0.25
34 | UCUGAGCAAUAUUACGGCAG | -1.8 ± 0.097 | -0.992 ± 0.12
35 | CGAGAGCAAUAUUACGUGUC | -3.05 ± 0.14 | -2.17 ± 0.16
36 | GCCGAGCAAUAUUACGUCAA |  | -2.36 ± 0.33
37 | GCAUAGCAAUAUUACGCUUG | -3.29 ± 0.21 | -2.64 ± 0.31
38 | ACUCAGCAAUAUUACGGCAG | -1.52 ± 0.089 | -0.501 ± 0.093
39 | CAAUAGCAAUAUUACGCCCA | -1.6 ± 0.41 | 
40 | UGGCAGCAAUAUUACGCAUA | -0.869 ± 0.096 | -0.265 ± 0.1
41 | UUGUAGCAAUAUUACGAGUU | -3.22 ± 0.25 | -2.61 ± 0.26
42 | GUGCAGCAAUAUUACGUCAA | -1.6 ± 0.15 | -0.634 ± 0.12
43 | AAAAAGCAAUAUUACGCACA | -0.661 ± 0.067 | -0.183 ± 0.087
44 | UAUAAGCAAUAUUACGCCGA | -1.53 ± 0.14 | 0.235 ± 0.14
45 | UGAUAGCAAUAUUACGAUGC | -3.93 ± 0.26 | -1.95 ± 0.17
46 | GAACAGCAAUAUUACGCGGU | -3.6 ± 0.19 | -2.82 ± 0.21
47 | AAUCAGCAAUAUUACGUAUC | -0.504 ± 0.044 | 0.251 ± 0.068
48 | CGCAAGCAAUAUUACGCGAG | -3.98 ± 0.31 | -2.43 ± 0.3
49 | CUAGAGCAAUAUUACGCCUG | -0.0979 ± 0.087 | 0.825 ± 0.12
50 | GUCGAGCAAUAUUACGAAAG | -2.57 ± 0.29 | -2.2 ± 0.35
51 | GUAGAGCAAUAUUACGUCUC | -0.285 ± 0.092 | -0.305 ± 0.099
52 | ACCAAGCAAUAUUACGGCCC | -0.856 ± 0.11 | 0.112 ± 0.16

Row | Sequence | self-splicing fitness (ln) (30 °C) | self-splicing fitness (ln) (37 °C)
53 | CCAAAGCAAUAUUACGAUUC | -3 ± 0.31 | -1.71 ± 0.34
54 | GCUGAGCAAUAUUACGCAUC | -1.72 ± 0.26 | -0.374 ± 0.33
55 | AAUGAGCAAUAUUACGUUCC | -2.71 ± 0.17 | -1.43 ± 0.2
56 | UGCUAGCAAUAUUACGAAGU | -2.88 ± 0.3 | -2.51 ± 0.49
57 | GGGUAGCAAUAUUACGCCUU | -1.56 ± 0.18 | -2.07 ± 0.21
58 | UAAAAGCAAUAUUACGGGUU | -3.85 ± 0.28 | -1.48 ± 0.12
59 | AACCAGCAAUAUUACGCUUU | -1.42 ± 0.084 | -1.05 ± 0.09
60 | GAUCAGCAAUAUUACGAAUA | -0.747 ± 0.11 | -0.471 ± 0.15
61 | GGAGAGCAAUAUUACGGGGG |  | -1.49 ± 0.46
62 | CAAGAGCAAUAUUACGCGAC | -3.73 ± 0.23 | -1.93 ± 0.13
63 | GGAAAGCAAUAUUACGGGGC | -3.54 ± 0.28 | -0.864 ± 0.21
64 | CUCGAGCAAUAUUACGGACA | -2.98 ± 0.33 | -1.35 ± 0.29
65 | UCUGAGCAAUAUUACGCGAA |  | -1.8 ± 0.25
66 | GAACAGCAAUAUUACGACAG | -3.37 ± 0.18 | -2.55 ± 0.17
67 | ACCUAGCAAUAUUACGAGCC | -2.81 ± 0.19 | -2.37 ± 0.3
68 | CCCGAGCAAUAUUACGCACU | -2.78 ± 0.25 | -3 ± 0.27
69 | GAUUAGCAAUAUUACGUUUC | -3.69 ± 0.28 | -1.89 ± 0.18
70 | AAGAAGCAAUAUUACGUGCU | -2.37 ± 0.087 | -1.3 ± 0.082
71 | AGAGAGCAAUAUUACGCAUG | -3.23 ± 0.22 | -1.9 ± 0.35
72 | GGUUAGCAAUAUUACGCCGG | -2.48 ± 0.5 | -3.55 ± 0.42
73 | GAACAGCAAUAUUACGAAAU | -1.67 ± 0.12 | -0.204 ± 0.14
74 | AUUUAGCAAUAUUACGAGAU | -3.55 ± 0.4 | -1.41 ± 0.28
75 | CAAGAGCAAUAUUACGUAAU | -2.63 ± 0.23 | -2.7 ± 0.32
76 | GAUAAGCAAUAUUACGGGAA | -2.84 ± 0.25 | -1.99 ± 0.22
77 | UGUCAGCAAUAUUACGAGAU | -3.11 ± 0.22 | -2.56 ± 0.27
